Laboratory results taken from article PMC11638070 (Nature Structural & Molecular Biology, 2024).

Columns and labels:
[1] = molecular target: T1, mitochondrial heat shock protein 60 V72I (mtHsp60^V72I) (human, UniProt P10809 53-573, V72I); assay: cryo-EM structure; mtHsp60^V72I 0.2-0.6 mg/ml in ATPase buffer without detergent, 1 mM ATP; settings: both partners purified
[2] = molecular target: T1, mitochondrial heat shock protein 60 …; assay: SEC-MALS; mtHsp60 samples 17 µM monomer, without ATP; Shodex Protein KW-804, room temperature, 20 mM HEPES pH 7.5, 100 mM KCl, 10 mM MgCl2; heptamer to monomers; settings: both partners purified
mtHsp60 Y201A = mtHsp60 Y201A (human, UniProt P10809 53-573, Y201A); assay: SEC; analytical SEC of each protein alone (mtHsp60 samples 17 µM monomer); Superdex 200 Increase 3.2/300, room temperature, 20 mM HEPES pH 7.5, 100 mM KCl, 10 mM MgCl2; settings: both partners purified
[3] = molecular target: the molecule itself; assay: as above

B1: mitochondrial heat shock protein 60 V72I (mtHsp60^V72I) (natural protein)
chain: AKDVKFGADARALMLQGVDLLADAVAVTMGPKGRTVIIEQSWGSPKVTKDGVTVAKSIDLKDKYKNIGAKLIQDVANNTNEEAGDGTTTATVLARSIAKEGFEKISKGANPVEIRRGVMLAVDAVIAELKKQSKPVTTPEEIAQVATISANGDKEIGNIISDAMKKVGRKGVITVKDGKTLNDELEIIEGMKFDRGYISPYFINTSKGQKCEFQDAYVLLSEKKISSIQSIVPALEIANAHRKPLVIIAEDVDGEALSTLVLNRLKVGLQVVAVKAPGFGDNRKNQLKDMAIATGGAVFGEEGLTLNLEDVQPHDLGKVGEVIVTKDDAMLLKGKGDKAQIEKRIQEIIEQLDVTTSEYEKEKLNERLAKLSDGVAVLKVGGTSDVEVNEKKDRVTDALNATRAAVEEGIVLGGGCALLRCIPALDSLTPANEDQKIGIEIIKRTLKIPAMTIAKNAGVEGSLIVEKIMQSSSEVGYDAMAGDFVNMVEKGIIDPTKVVRTALLDAAGVASLLTTAEVVVTEIPKEEKDPGMGAMGGMGGGMGGGMF
modifications: heptamer in apo state; ATP/Mg2+/K+ gives double-ring tetradecamer; SNA tag scar left out / heptamer in apo state; ATP/Mg2+/K+ gives double-ring tetradecamer; SNA tag scar left out
**Q.** Which results are given for B1?
**A.** stoichiometry N [1]: 14; stoichiometry N [2]: 7

B2: mtHsp60 Y201A (natural protein)
chain: AKDVKFGADARALMLQGVDLLADAVAVTMGPKGRTVIIEQSWGSPKVTKDGVTVAKSIDLKDKYKNIGAKLVQDVANNTNEEAGDGTTTATVLARSIAKEGFEKISKGANPVEIRRGVMLAVDAVIAELKKQSKPVTTPEEIAQVATISANGDKEIGNIISDAMKKVGRKGVITVKDGKTLNDELEIIEGMKFDRGYISPAFINTSKGQKCEFQDAYVLLSEKKISSIQSIVPALEIANAHRKPLVIIAEDVDGEALSTLVLNRLKVGLQVVAVKAPGFGDNRKNQLKDMAIATGGAVFGEEGLTLNLEDVQPHDLGKVGEVIVTKDDAMLLKGKGDKAQIEKRIQEIIEQLDVTTSEYEKEKLNERLAKLSDGVAVLKVGGTSDVEVNEKKDRVTDALNATRAAVEEGIVLGGGCALLRCIPALDSLTPANEDQKIGIEIIKRTLKIPAMTIAKNAGVEGSLIVEKIMQSSSEVGYDAMAGDFVNMVEKGIIDPTKVVRTALLDAAGVASLLTTAEVVVTEIPKEEKDPGMGAMGGMGGGMGGGMF
modifications: at least partly heptameric by SEC; mature numbering + 26 = precursor; SNA tag scar left out / at least partly heptameric by SEC; mature numbering + 26 = precursor; SNA tag scar left out
**Q.** With B2 as the binder, how does the “stoichiometry N” value (mtHsp60 Y201A) read?
**A.** The value was 7.

B3: mitochondrial malate dehydrogenase labelled with fluorescein isothiocyanate (FITC-mtMDH) (enzyme, human, UniProt P40926 25-338, looked up)
chain: AKVAVLGASGGIGQPLSLLLKNSPLVSRLTLYDIAHTPGVAADLSHIETKAAVKGYLGPEQLPDCLKGCDVVVIPAGVPRKPGMTRDDLFNTNATIVATLTAACAQHCPEAMICVIANPVNSTIPITAEVFKKHGVYNPNKIFGVTTLDIVRANTFVAELKGLDPARVNVPVIGGHAGKTIIPLISQCTPKVDFPQDQLTALTGRIQEAGTEVVKAKAGAGSATLSMAYAGARFVFSLVDAMNGKEGVVECSFVKSQETECTYFSTPLLLGKKGIEKNLGIGKVSSFEEKMISDAIPELKASIKKGEDFVKTLK
modifications: FITC (fluorescein isothiocyanate) label, sites not stated
notes: mitochondrial malate dehydrogenase (mtMDH), human; bacterial expression vector Addgene plasmid no; 38792; Used folded (elutes as a dimer) or chemically denatured (6 M guanidine HCl, 10 mM DTT, 1 h); the two states are told apart by the assays; also called FITC-mtMDH^denat (guanidine-denatured form); source: E. coli Rosetta 2(DE3)pLysS, purified (HisTrap, SEC), labelled with FITC
**Q.** With B3 as the binder, how does the “stoichiometry N” value [3] read?
**A.** Its value is 2.
